Data: US10584153B2, “Treatment of damaged nerve with PTEN inhibitor” (TISSUEGENE, INC., priority 2013, dated 2020)
Several values for one entry are separate records, joined by “and”; a condition that tells them apart may be missing. Identical values can stand only once. No end group written: not given here.

Experiments:
[1] = tested on: Akt protein phosphorylation in PC12 cells (PI3K-Akt signaling pathway); assay: Akt activation (phosphorylation) level by Western blot in PC12 cells; format: cell-based, rat; settings: endogenous or overexpressed PTEN, TGN-1 10 and 100 μM, TGN-4 10 μM, 24 hr
Method: PC12 rat pheochromocytoma cells were seeded to 6-well plate (0.6×10^6 cells/well) and cultured with DMEM media containing 7.5% FBS and 7.5% Goat Serum. After the cell confluency reached around 60˜70%, NGF (nerve growth factor, 50 ng/mL) was added to the PC12 cells for differentiation and incubated for 5 more days. Then, fresh media containing different amounts of TGN peptides in DMSO solution were added to each well and incubated further for 24 hr. For PTEN overexpession, PC12 cells were seeded in 6-well plate (1.0×10^6 cells/well) and differentiated with NGF (50 ng/mL) as above. DNA-Lipofectamine 2000 mixture was prepared for each well of cells to be transfected by firstly adding 2˜2.5 μg of human PTEN c-DNA into 500 μl of Opti-MEM. 3.75-8.75 μl of Lipofectamine 2000™ reagent was added next to the above diluted DNA solution, mixed gently and incubated for 25 minutes at room temperature. Growth media of PC12 cells in 6-well plate was exchanged with fresh media and 500 μl of the DNA-Lipofectamine 2000 complex was added to each well for transfection. Transfected cells were incubated at 37° C. in 5.0% CO2 incubator for 24-48 hours post-transfection before assaying for transgene expression.
After culturing, PC12 cells were collected from the 6-well plate and centrifuged down with bench-top centrifuger to make cell pellet (13,000 rpm, 5 min at RT). […]

PTEN [2] = target: T1, PTEN (Homo sapiens, UniProt P60484); assay: In vitro PTEN activity assay / IC50 assay (Malachite Green, C8-PIP3 liposome); format: biochemical; design: purchased R&D Systems, Inc; settings: 10 μM peptide
Target sequence in this assay (P60484 whole entry): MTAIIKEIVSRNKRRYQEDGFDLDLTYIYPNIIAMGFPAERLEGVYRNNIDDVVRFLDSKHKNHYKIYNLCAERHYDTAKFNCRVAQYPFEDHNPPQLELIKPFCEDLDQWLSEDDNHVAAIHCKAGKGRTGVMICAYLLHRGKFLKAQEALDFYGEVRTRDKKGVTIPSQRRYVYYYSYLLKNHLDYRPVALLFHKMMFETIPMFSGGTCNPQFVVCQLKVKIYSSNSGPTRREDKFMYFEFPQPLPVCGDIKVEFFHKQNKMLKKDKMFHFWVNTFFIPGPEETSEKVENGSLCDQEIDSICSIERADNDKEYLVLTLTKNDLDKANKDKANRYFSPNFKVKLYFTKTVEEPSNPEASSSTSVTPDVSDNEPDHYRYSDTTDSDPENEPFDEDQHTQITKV
From the text: In vitro PTEN activity assay was designed to check PTEN lipid phosphatase activity to convert phosphatidylinositol triphosphate (PIP3) to phosphatidylinositol diphosphate (PIP2) and produce phosphate ion (Pi). 1,2-dioctanoyl-sn-glycero-3-phospho-(1′-myo-inositol-3,4,5-triphosphate) (C8-PIP3) was used as PTEN substrate and prepared as lipid vesicle (liposome) with other phospholipids because PTEN as lipid phosphatase is an interfacial enzyme. For liposome preparation, C8-PIP3, DOPS (1,2-dioeloyl-sn-glycero-phosphoserine) and DOPC (1,2-dioeloyl-sn-glycero-phosphocholine) were mixed together with 800 μL of liposome buffer (50 mM Tris, 100 mM NaCl, 10 mM MgCl2, 5 mM DTT, pH=8.0) to final concentration of 0.1 mM of C8-PIP3, 0.25 mM DOPS and 0.25 mM DOPC. The lipid mixture was then sonicated at 4° C. for 30 min to produce liposome. After sonication, the liposome solution was briefly centrifuged to remove remaining lipids.
For PTEN activity assay, 20 ng of recombinant human PTEN protein was mixed with 40 μL of completed liposome solution. […] After incubation, the inorganic phosphate ions produced by PTEN protein was detected using Malachite Green phosphate detection kit. […]
All data represent experimentation in triplicate and the IC50 values were calculated by Prism 5 software (GraphPad Software).

PTEN [3] = target: T1, PTEN; settings: from Odriozola et al.; read-out: IC50, in vitro PTEN (Odriozola peptides); cited from earlier work
Target sequence in this assay (P60484 whole entry, species assumed): as the sequence (P60484 whole entry) above

| Substance | Activation (phosphorylation) level of Akt protein [1] | Inhibitory effect on in vitro PTEN activity (PTEN [2]) | IC50 (PTEN [3]) |
| --- | --- | --- | --- |
| RRRRRRRR-SDDEYTDNPDSRYVSDTPVDTEH-amide (RRRRRRRRSDDEYTDNPDSRYVSDTPVDTEH-NH2) [TGN-4, scrambled peptide of TGN-1 peptide, negative control] | did not increase the activation level of AKT protein | no significant inhibition |  |
| RRRRRRRR-DEHDTEYTPDYRQETHFNSQPTDKSDVI-amide (RRRRRRRRDEHDTEYTPDYRQETHFNSQPTDKSDVI-NH2) [TGN-5, TGN-2/TGN-3 scrambled peptide] |  | no significant inhibition |  |
| Cp23: synthetic phosphomimic peptide of Odriozola et al. encompassing PTEN AA368-390, no phosphorylated Serine residues (DVSDNEPDHYRYSDTTDSDPENE; UniProt P60484 368-390, looked up, fragment) |  |  | ~1030 µM and 1030 µM |
